Experiments:
[1] = biological target: SDM-Eno: enolase-1 with all seven corresponding charge-reversal mutations (bovine) (UniProt Q9XSJ4); test: anti-arrestin-1 (C10C10) immunoprecipitation pulldown of AlexaFluor546-labeled enolase-1; 5 µM each
bovine enolase-1 [2] = biological target: T1, bovine enolase-1 (bovine, UniProt Q9XSJ4 1-434, AlexaFluor-546 maleimide on reactive cysteines (pulldown assay only; unlabeled in the quench and activity assays)); test: cell-based or functional assay
bovine enolase-1 [3] = biological target: T1, bovine enolase-1; test: anti-arrestin-1 (C10C10) immunoprecipitation pulldown of AlexaFluor546-labeled enolase-1; 5 µM each
Method: E. Immunoprecipitation/Enolase Pulldown assay. The interaction between arrestin-1 and enolase-1 was assessed by using anti-arrestin-1 antibody to immunoprecipitate the arrestin-1-enolase-1 complex in which the enolase-1 was fluorescently labeled with AlexaFluor546. For this assay, 1.5 mg of Protein G-coated magnetic beads (DynaBeads, ThermoFisher), were coated with 10 μg of purified C10C10 anti-arrestin-1 monoclonal antibody (Donoso et al. (1990) S-antigen: preparation and characterization of site-specific monoclonal antibodies. Curr Eye Res 9, 343-355). Enolase-1 was labeled on its reactive cysteines with AlexaFluor-546 maleimide (ThermoFisher), reacting the enolase-1 with 100-fold molar excess of the fluorescent label. The fluorescently labeled enolase-1 was then sequentially dialyzed in LAP200^N buffer to remove any unreacted label. For the immunoprecipitation of the arrestin-1-enolase-1 complex, 5 μM arrestin-1 (or arrestin-1 variant) was mixed with 5 μM enolase-1-Alexa546 in LAP200^N in a 200 μL final volume for 2 h at 4° C., to which 10 μg of anti-arrestin-1 antibody on magnetic beads was subsequently added for 16 h with gentle rotation. The beads were magnetically captured, washed ten times with LAP200^N buffer, and then eluted with 0.1 M glycine (pH 2.5). After neutralizing the pH with 0.1 volume 1.5 M Tris base (pH 8.5), the fluorescence of the captured enolase-1-Alexa546 was measured, exciting fluorescence at 530 nm, and measuring average emission at 570-575 nm with a dual-detector fluorimeter (QM-1 steady state fluorescence spectrophotometer, Photon Technologies Inc).
The charge-pair interactions identified in example 1 were selected to further investigate the modeled arrestin-1/enolase-1 interaction. Seven charged-pair interactions (Table 3 and FIG. 4A) were identified from the model as having the closest interactions. […] Following heterologous expression and purification, each arrestin-1 mutant was then assessed for its interaction with enolase-1, using an anti-arrestin-1 immunoprecipitation assay to pulldown fluorescently labelled enolase-1.

bovine enolase-1 [4] = biological target: T1, bovine enolase-1; test: titration of enolase-1 (0-12.5 µM) on 0.25 µM H10C-mBBr, KI quench protection
From the text: FIGS. 1A-1B. Graph illustrating optimization of fluorescence quench and quench protection.
B. Enolase concentration. The concentration of enolase-1 that could provide protection of mBBr fluorescence from quenching by the KI was then titrated. […] 90% quench protection was selected as the criterion value, which corresponded to a 20-fold molar excess of enolase-1 to arrestin-1.

bovine enolase-1 [5] = biological target: T1, bovine enolase-1; test: KI quench protection of mBBr-labeled arrestin-1; 0.25 µM arrestin-1, 5 µM (20-fold) enolase-1
Method: C. Quenching assay. Cysteine mutants of arrestin-1 were labeled with monobromobimane (mBBr, ThermoFisher), reacting the arrestin-1 protein with 100-fold molar excess of the fluorescent label for two hours at room temperature. The unreacted label was removed by dialyzing against three sequential changes of 500-volumes of LAP200 buffer. […] Fluorescence quenching of the mBBr fluorophore was performed using 0.25 μM mBBr-labeled arrestin-1 with 100 mM potassium iodide in the presence or absence of 5 μM bovine enolase-1 that had been heterologously expressed and purified as previously described for arrestin-1, monitoring fluorescence emission at 470 nm. To determine the degree to which enolase-1 shielded a residue from quenching by potassium iodide, a protection factor was calculated as follows: […]
C. Mapping interaction of arrestin-1 with enolase-1. […] The fluorescence emission of the mBBr-labeled arrestin-1 with and without potassium iodide was measured to determine the range of quenching by KI. The fluorescence emission quench by KI with and without enolase-1 was then measured. A quench protection factor was calculated as described in the experimental procedures (Table 2). […] When mapped onto the surface of the arrestin-1 structure, these residues largely mapped to a single surface along the “bottom” of the arrestin protein (FIG. 2B).

T1 sequence (Q9XSJ4 whole entry): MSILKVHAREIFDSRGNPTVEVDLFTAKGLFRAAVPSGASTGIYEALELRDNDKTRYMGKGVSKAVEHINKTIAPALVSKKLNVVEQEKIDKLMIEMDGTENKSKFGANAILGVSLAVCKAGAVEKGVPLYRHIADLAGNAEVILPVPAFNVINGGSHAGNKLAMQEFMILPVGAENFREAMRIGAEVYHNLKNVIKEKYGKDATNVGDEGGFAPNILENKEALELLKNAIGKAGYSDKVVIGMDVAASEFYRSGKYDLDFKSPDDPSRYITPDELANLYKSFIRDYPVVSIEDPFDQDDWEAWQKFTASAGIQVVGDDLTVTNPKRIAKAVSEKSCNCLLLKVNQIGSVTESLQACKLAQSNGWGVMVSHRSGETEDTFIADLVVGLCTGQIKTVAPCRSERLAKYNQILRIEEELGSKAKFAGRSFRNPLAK
bovine wild-type arrestin-1, N-terminally His(6)-tagged, sequence (P08168 other isoform, or with tags, fused parts or gaps): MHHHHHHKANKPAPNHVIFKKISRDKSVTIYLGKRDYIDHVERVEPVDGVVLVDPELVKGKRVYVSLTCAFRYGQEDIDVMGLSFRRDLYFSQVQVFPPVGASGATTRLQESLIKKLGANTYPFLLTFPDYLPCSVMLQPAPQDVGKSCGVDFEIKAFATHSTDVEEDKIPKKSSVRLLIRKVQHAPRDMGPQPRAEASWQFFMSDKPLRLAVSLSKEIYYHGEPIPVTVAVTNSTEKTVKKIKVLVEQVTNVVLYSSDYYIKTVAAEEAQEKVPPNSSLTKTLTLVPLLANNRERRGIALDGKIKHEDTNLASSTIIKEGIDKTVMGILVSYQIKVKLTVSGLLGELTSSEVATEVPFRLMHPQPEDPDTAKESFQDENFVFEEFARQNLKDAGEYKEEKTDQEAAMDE
SDM-Eno: enolase-1 with all seven corresponding charge-reversal mutations (bovine), sequence (Q9XSJ4 whole entry, change not shown): as the sequence (Q9XSJ4 whole entry) above

Molecule | % inhibition of enolase-1 catalytic activity (bovine enolase-1 [2]) | reduction of enolase-1 pulldown relative to wild-type arrestin-1 (bovine enolase-1 [3]) | also measured
bovine wild-type arrestin-1, N-terminally His(6)-tagged (from UniProt P08168 2-404) |  |  | decrease of pulldown compared to pulldown of wild-type enolase-1 [1]: > 80%
E361A/D362G arrestin-1 variant (bovine) (other) MHHHHHHKANKPAPNHVIFKKISRDKSVTIYLGKRDYIDHVERVEPVDGVVLVDPELVKGKRVYVSLTCAFRYGQEDIDVMGLSFRRDLYFSQVQVFPPVGASGATTRLQESLIKKLGANTYPFLLTFPDYLPCSVMLQPAPQDVGKSCGVDFEIKAFATHSTDVEEDKIPKKSSVRLLIRKVQHAPRDMGPQPRAEASWQFFMSDKPLRLAVSLSKEIYYHGEPIPVTVAVTNSTEKTVKKIKVLVEQVTNVVLYSSDYYIKTVAAEEAQEKVPPNSSLTKTLTLVPLLANNRERRGIALDGKIKHEDTNLASSTIIKEGIDKTVMGILVSYQIKVKLTVSGLLGELTSSEVATEVPFRLMHPQPAGPDTAKESFQDENFVFEEFARQNLKDAGEYKEEKTDQEAAMDE | 1.3% |  | 
E361G/D362A arrestin-1 variant (bovine) (other) MHHHHHHKANKPAPNHVIFKKISRDKSVTIYLGKRDYIDHVERVEPVDGVVLVDPELVKGKRVYVSLTCAFRYGQEDIDVMGLSFRRDLYFSQVQVFPPVGASGATTRLQESLIKKLGANTYPFLLTFPDYLPCSVMLQPAPQDVGKSCGVDFEIKAFATHSTDVEEDKIPKKSSVRLLIRKVQHAPRDMGPQPRAEASWQFFMSDKPLRLAVSLSKEIYYHGEPIPVTVAVTNSTEKTVKKIKVLVEQVTNVVLYSSDYYIKTVAAEEAQEKVPPNSSLTKTLTLVPLLANNRERRGIALDGKIKHEDTNLASSTIIKEGIDKTVMGILVSYQIKVKLTVSGLLGELTSSEVATEVPFRLMHPQPGAPDTAKESFQDENFVFEEFARQNLKDAGEYKEEKTDQEAAMDE | 8.3% |  | 
D362K arrestin-1 (bovine, His(6)-tagged charge-reversal mutant) (other) MHHHHHHKANKPAPNHVIFKKISRDKSVTIYLGKRDYIDHVERVEPVDGVVLVDPELVKGKRVYVSLTCAFRYGQEDIDVMGLSFRRDLYFSQVQVFPPVGASGATTRLQESLIKKLGANTYPFLLTFPDYLPCSVMLQPAPQDVGKSCGVDFEIKAFATHSTDVEEDKIPKKSSVRLLIRKVQHAPRDMGPQPRAEASWQFFMSDKPLRLAVSLSKEIYYHGEPIPVTVAVTNSTEKTVKKIKVLVEQVTNVVLYSSDYYIKTVAAEEAQEKVPPNSSLTKTLTLVPLLANNRERRGIALDGKIKHEDTNLASSTIIKEGIDKTVMGILVSYQIKVKLTVSGLLGELTSSEVATEVPFRLMHPQPEKPDTAKESFQDENFVFEEFARQNLKDAGEYKEEKTDQEAAMDE |  | ~25% | 
E361G/D362G arrestin-1 variant (bovine, His(6)-tagged) (other) MHHHHHHKANKPAPNHVIFKKISRDKSVTIYLGKRDYIDHVERVEPVDGVVLVDPELVKGKRVYVSLTCAFRYGQEDIDVMGLSFRRDLYFSQVQVFPPVGASGATTRLQESLIKKLGANTYPFLLTFPDYLPCSVMLQPAPQDVGKSCGVDFEIKAFATHSTDVEEDKIPKKSSVRLLIRKVQHAPRDMGPQPRAEASWQFFMSDKPLRLAVSLSKEIYYHGEPIPVTVAVTNSTEKTVKKIKVLVEQVTNVVLYSSDYYIKTVAAEEAQEKVPPNSSLTKTLTLVPLLANNRERRGIALDGKIKHEDTNLASSTIIKEGIDKTVMGILVSYQIKVKLTVSGLLGELTSSEVATEVPFRLMHPQPGGPDTAKESFQDENFVFEEFARQNLKDAGEYKEEKTDQEAAMDE | 0.7% |  | 
E361K arrestin-1 (bovine, His(6)-tagged charge-reversal mutant) (other) MHHHHHHKANKPAPNHVIFKKISRDKSVTIYLGKRDYIDHVERVEPVDGVVLVDPELVKGKRVYVSLTCAFRYGQEDIDVMGLSFRRDLYFSQVQVFPPVGASGATTRLQESLIKKLGANTYPFLLTFPDYLPCSVMLQPAPQDVGKSCGVDFEIKAFATHSTDVEEDKIPKKSSVRLLIRKVQHAPRDMGPQPRAEASWQFFMSDKPLRLAVSLSKEIYYHGEPIPVTVAVTNSTEKTVKKIKVLVEQVTNVVLYSSDYYIKTVAAEEAQEKVPPNSSLTKTLTLVPLLANNRERRGIALDGKIKHEDTNLASSTIIKEGIDKTVMGILVSYQIKVKLTVSGLLGELTSSEVATEVPFRLMHPQPKDPDTAKESFQDENFVFEEFARQNLKDAGEYKEEKTDQEAAMDE |  | ~25% | 
H10C arrestin-1 (bovine, His(6), C63A/C143A) labeled with monobromobimane (other, monobromobimane (mBBr) on Cys 10, Cysteine-substitution mutant, made in Pichia pastoris; also called H10C-mBBr) MHHHHHHKANKPAPNCVIFKKISRDKSVTIYLGKRDYIDHVERVEPVDGVVLVDPELVKGKRVYVSLTAAFRYGQEDIDVMGLSFRRDLYFSQVQVFPPVGASGATTRLQESLIKKLGANTYPFLLTFPDYLPCSVMLQPAPQDVGKSAGVDFEIKAFATHSTDVEEDKIPKKSSVRLLIRKVQHAPRDMGPQPRAEASWQFFMSDKPLRLAVSLSKEIYYHGEPIPVTVAVTNSTEKTVKKIKVLVEQVTNVVLYSSDYYIKTVAAEEAQEKVPPNSSLTKTLTLVPLLANNRERRGIALDGKIKHEDTNLASSTIIKEGIDKTVMGILVSYQIKVKLTVSGLLGELTSSEVATEVPFRLMHPQPEDPDTAKESFQDENFVFEEFARQNLKDAGEYKEEKTDQEAAMDE |  |  | quench protection at 20-fold molar excess of enolase-1 (bovine enolase-1 [4]): 90%; F(A+E+K) (fluorescence with enolase-1 and KI) (bovine enolase-1 [5]): 10300; Pf (quench protection factor) (bovine enolase-1 [5]): 0.792
R29E arrestin-1 (bovine, His(6)-tagged charge-reversal mutant) (other) MHHHHHHKANKPAPNHVIFKKISRDKSVTIYLGKEDYIDHVERVEPVDGVVLVDPELVKGKRVYVSLTCAFRYGQEDIDVMGLSFRRDLYFSQVQVFPPVGASGATTRLQESLIKKLGANTYPFLLTFPDYLPCSVMLQPAPQDVGKSCGVDFEIKAFATHSTDVEEDKIPKKSSVRLLIRKVQHAPRDMGPQPRAEASWQFFMSDKPLRLAVSLSKEIYYHGEPIPVTVAVTNSTEKTVKKIKVLVEQVTNVVLYSSDYYIKTVAAEEAQEKVPPNSSLTKTLTLVPLLANNRERRGIALDGKIKHEDTNLASSTIIKEGIDKTVMGILVSYQIKVKLTVSGLLGELTSSEVATEVPFRLMHPQPEDPDTAKESFQDENFVFEEFARQNLKDAGEYKEEKTDQEAAMDE |  | ~25% | 

Source: patent US20230174598A1 (UNIVERSITY OF FLORIDA RESEARCH FOUNDATION, published 2023)
